Experimental data taken from publication PMC11740656.
“And” between values parts separate entries of the source, which are not always exact repeats. Equal values may be shown once.

Target: human CLDN4 (YFP- or CFP-tagged) (human)
Experiment: FRET or BRET

stoichiometry N (hCLDN8:hCLDN4): 0.5 and 0.25
Substance: human CLDN8 (YFP- or CFP-tagged) (natural protein)
